Target: the molecule itself
Assay: SEC-MALS

B1: rat RNF4 RING domain (residues 124-194) (domain or fragment, UniProt O88846 124-194, looked up)
chain: GTTGLRPSGTVSCPICMDGYSEIVQNGRLIVSTECGHVFCSQCLRDSLKNANTCPTCRKKINHKRYHPIYI
stoichiometry N: 2
